{
  "source": "paper PMC7939549",
  "about": "“LAP2alpha maintains a mobile and low assembly state of A-type lamins in the nuclear interior” (eLife, 2021)",
  "target": "T1, lamin A/C (endogenous, mEos3.2-lamin A/C WT mouse dermal fibroblasts) (mouse (endogenous in mouse dermal …, UniProt P48678 1-647))",
  "T1 construct": "lamins A and C, both products of the mouse Lmna gene, precipitated together by lamin A/C antibodies; WT clone #21 expresses mEos3.2-tagged lamin A/C (mEos3.2 in frame before the first codon, N-terminal) from 1 allele and untagged lamin A/C from 3 alleles; the precipitated pool holds tagged and untagged lamins A and C; also called lamins A and C; A-type lamins; source: endogenous, mEos3.2-Lmna WT …",
  "T1 sequence (looked up)": "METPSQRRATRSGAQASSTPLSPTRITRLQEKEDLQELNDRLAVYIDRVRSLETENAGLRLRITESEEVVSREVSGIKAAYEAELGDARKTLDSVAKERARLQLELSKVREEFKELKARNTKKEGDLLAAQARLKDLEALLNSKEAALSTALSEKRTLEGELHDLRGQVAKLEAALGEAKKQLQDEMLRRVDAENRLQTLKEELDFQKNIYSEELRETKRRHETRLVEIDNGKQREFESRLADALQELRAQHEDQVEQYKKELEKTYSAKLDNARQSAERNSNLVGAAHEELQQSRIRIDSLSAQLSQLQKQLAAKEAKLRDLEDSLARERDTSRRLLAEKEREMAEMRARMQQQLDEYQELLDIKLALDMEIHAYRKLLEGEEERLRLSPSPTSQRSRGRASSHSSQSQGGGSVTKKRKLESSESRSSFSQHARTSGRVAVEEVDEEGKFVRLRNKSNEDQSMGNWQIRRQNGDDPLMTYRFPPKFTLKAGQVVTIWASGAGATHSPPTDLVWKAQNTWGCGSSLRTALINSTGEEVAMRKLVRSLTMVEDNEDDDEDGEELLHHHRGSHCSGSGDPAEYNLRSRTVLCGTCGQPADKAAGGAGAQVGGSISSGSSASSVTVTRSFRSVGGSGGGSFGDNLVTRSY",
  "assay": "not stated; our unpublished data; ratio of mEos3.2-lamin A and LAP2α in the complex",
  "data": [
    {"binder": "LAP2α (endogenous, mouse dermal fibroblasts) (natural protein, UniProt Q61033 1-693, looked up, lamin-associated polypeptide 2 alpha (LAP2α), mouse, endogenous, detected with antibody 1H11; also called lamin-associated polypeptide 2 alpha; source: endogenous, mEos3.2-Lmna WT mouse dermal fibroblasts, soluble cell extract) MPEFLEDPSVLTKDKLKSELVANNVTLPAGEQRKDVYVQLYLQHLTARNRPPLAAGANSKGPPDFSSDEEREPTPVLGSGASVGRGRGAVGRKATKKTDKPRLEDKDDLDVTELSNEELLDQLVRYGVNPGPIVGTTRKLYEKKLLKLREQGTESRSSTPLPTVSSSAENTRQNGSNDSDRYSDNDEGKKKEHKKVKSARDCVPFSELASTPSGAFFQGISFPEISTRPPLGRTELQAAKKVQTTKRDPPRETCTDTALPGKGQTHKLAPGRSLFIPSESSYDRCVEKSSSPSSQREFAARLVSAAASPSLIRETTTTYSKDIVENICRGGKSRAQPLRAEEPGVSDQSVFSSEREVLQESERSQVISPPLAQAIRDYVNSLLVQGGVGSLPGTSDSVPTLDVENICKRLSQSSYQDSESLSPPRKVPRLSEKPARGGDSGSCVAFQNTPGSEHRSSFAKSVVSHSLTTLGVEVSKPPPQHDKIEASEPSFPLHESILKVVEEEWQQIDRQLPSVACRYPVSSIEAARILSVPKVDDEILGFISEATPRAATQASSTESCDKHLDLALCRSYEAAASALQIAAHTAFVAKSLQADISQAAQIINSDPSDAQQALRILNRTYDAASYLCDAAFDEVRMSACAMGSSTMGRRYLWLKDCKISPASKNKLTVAPFKGGTLFGGEVHKVIKKRGNKQ", "values": [
      {"measurement": "stoichiometry N", "result": 1}
    ]}
  ]
}
